Key:
[1] = biological target: T1, pyro-Glu(3-40/42) fibrils (N-terminal pyroglutamate (pyro-Glu at Aβ position 3)); experiment: SPR, fibrils
T1 construct: Fibrillar aggregate of pyro-Glu(3-40/42)-Aβ

pyro-Glu(3-40/42)-Aβ [2] = biological target: T2, pyro-Glu(3-40/42)-Aβ (N-terminal pyroglutamate (pyro-Glu at Aβ position 3)); experiment: SPR; restated as (4.2 nM) in the line below
T2 construct: also called pyro-Glu(3-40/42) monomers; N-terminally modified pyro-glutamate Aβ

Aβ (1-40) fibrils = biological target: T3, Aβ (1-40) fibrils; experiment: SPR / Europium ELISA
T3 construct: Fibrillar aggregate of wild-type Aβ(1-40)
T3 sequence (peptide, as listed by the source): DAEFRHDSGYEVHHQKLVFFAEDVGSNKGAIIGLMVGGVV

wild-type Aβ(1-40) = biological target: T4, wild-type Aβ(1-40); experiment: SPR (Table 1)
T4 construct: also called WT Aβ(1-40); Aβ (1-40) monomers

pyro-Glu(3-40/42)-Aβ [3] = biological target: T2, pyro-Glu(3-40/42)-Aβ; experiment: SPR or EU-ELISA (Table 1). Column 5 has no head of its own and is read as under the head 'KD for pyro-Glu (3-40/42)' printed at c4. Restated as (37.3 nM) in the line below. Differs from c4 (4.17E-9); second, unheaded column (c5) beside c4 under 'KD for pyro-Glu (3-40/42)'; probably the other peptide length (3-40 or 3-42), which the patent does not state

T2 sequence (peptide, as listed by the source): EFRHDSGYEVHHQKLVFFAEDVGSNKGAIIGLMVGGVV

Kd [1]: 4.53 nM
Kd (pyro-Glu(3-40/42)-Aβ [2]): 4.17 nM
binding result (Aβ (1-40) fibrils): no binding
binding result (wild-type Aβ(1-40)): no binding
Kd (pyro-Glu(3-40/42)-Aβ [3]): 37.3 nM
B1: PGA 5 (antibody, IgG1, V domains shown)
VH: EVKLVESGGGLVQPGGSLRLSCVTSGFTFTENYMSWVRQPPGKALEWLGFIRNKANGYTTEYSASVKGRFTISRDNSQSILYLQMNTLRAEDSATYYCARDWDYGSSHAMDYWGQGTSVTVSS
VL: DILLTQSPAILSVSPGERVSFSCRASQNIGTSMHWFQQRTNGSPRLLIKYASESVSGIPSRFSGSGSGTDFTLSINSVESGDIADYYCQQSNSWPFTFGSGTKLEI
notes: also called 1F2 2E3; PGAS

Reference: US20120045392A1 (CASE WESTERN RESERVE UNIVERSITY, published 2012)
